# T1: FcγRIIb extracellular domain with C-terminal His tag (human, UniProt P31994 43-217)
# T1 construct: extracellular domain; Soluble receptor expressed in FreeStyle293 cells, used as analyte in Biacore; also called FcgRIIb; CD32B; not shown: His tag at the C terminus
# T1 sequence (looked up): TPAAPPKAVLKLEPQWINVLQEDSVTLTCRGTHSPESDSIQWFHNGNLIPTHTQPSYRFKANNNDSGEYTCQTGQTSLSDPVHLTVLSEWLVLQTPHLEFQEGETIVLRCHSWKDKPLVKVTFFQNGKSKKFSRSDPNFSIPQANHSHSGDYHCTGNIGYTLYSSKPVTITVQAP
# T2: FcγRIIa R (extracellular domain, C-terminal His tag) (human, UniProt P12318 34-217)
# T2 construct: extracellular domain; also called FcgRIIa R type; 2aR; not shown: His tag attached to the C terminus
# T2 sequence (looked up): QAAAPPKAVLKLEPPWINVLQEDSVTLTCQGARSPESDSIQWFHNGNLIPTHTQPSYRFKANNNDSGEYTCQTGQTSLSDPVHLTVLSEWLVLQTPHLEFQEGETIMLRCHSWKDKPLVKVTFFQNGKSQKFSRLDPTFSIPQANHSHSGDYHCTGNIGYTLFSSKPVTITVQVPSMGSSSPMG
# T3: FcγRIIb (extracellular domain, C-terminal His tag) (human, UniProt P31994 43-217)
# T3 construct: extracellular domain; also called FcgRIIb; 2b; not shown: His tag attached to the C terminus
# T3 sequence (looked up): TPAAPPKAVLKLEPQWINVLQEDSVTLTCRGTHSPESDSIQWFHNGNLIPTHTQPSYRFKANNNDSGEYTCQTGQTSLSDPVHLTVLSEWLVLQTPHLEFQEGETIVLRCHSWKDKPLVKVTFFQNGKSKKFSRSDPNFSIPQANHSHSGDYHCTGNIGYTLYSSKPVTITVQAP
# Experiments:
# [1] = target: T4, FcγRIa extracellular domain with C-terminal His tag (human, UniProt P12314 16-292); test: SPR (Biacore); ratio of He/Con_1a (FcγRIa) to He/Con_2b (FcγRIIb) of the same antibody
# T4 construct: extracellular domain; Soluble receptor expressed in FreeStyle293 cells, used as analyte in Biacore; also called FcgRI; CD64; not shown: His tag at the C terminus
# [2] = target: T4, FcγRIa extracellular domain with …; test: SPR (Biacore), antibody captured via antigen peptide, FcγR as analyte; binding relative to GpH7-A5/GpH7-B3/GpL16-k0 = 100
# [3] = target: T1, FcγRIIb extracellular domain with …; test: as above
# [4] = target: T2, FcγRIIa R (extracellular domain, …); test: ratio of He/Con_2aR to He/Con_2b (FcγRIIb); SPR relative binding
# Description: (§1) The heterodimerized antibodies He Abs in which one of the H chains was introduced with an alteration were assayed for their binding activities to each activating FcγR and inhibitory FcγR according to the method described in Example 4. […] The activating FcγRs in FIGS. 26, 27, 28, and 29 are FcγRIa, FcγRIIa (R), FcγRIIa (H), and FcγRIIIa, respectively.
# (§2) Analysis of interaction between objective antibody and the FcγR was carried out using Biacore T100 (GE Healthcare). HBS-EP+ (GE Healthcare) was used as the running buffer, and the measurement temperature was set to 25° C. Chips produced by immobilizing the antigen peptide by the amine coupling method to a Series S Sencor Chip CM5 (GE Healthcare), or alternatively, chips produced by allowing preliminarily biotinylated antigen peptides to interact with and immobilize onto a Series S Sensor Chip SA (certified) (GE Healthcare) were used. Antibodies of interest were captured onto an antigen peptide-immobilized chip, and allowed to interact to each FcγR diluted with running buffer. To regenerate and repeatedly use the chip, the antibodies captured on the chip were washed off by reacting 10 mM glycine-HCl, pH 1.5.
# [5] = target: T2, FcγRIIa R (extracellular domain, …); test: SPR (Biacore), antibody captured on antigen-peptide chip, FcγR as analyte; relative binding amount
# Description: as §1, §2
# [6] = target: T3, FcγRIIb (extracellular domain, …); test: as above
# Description: as §1, §2
# T4 sequence (P12314 16-292): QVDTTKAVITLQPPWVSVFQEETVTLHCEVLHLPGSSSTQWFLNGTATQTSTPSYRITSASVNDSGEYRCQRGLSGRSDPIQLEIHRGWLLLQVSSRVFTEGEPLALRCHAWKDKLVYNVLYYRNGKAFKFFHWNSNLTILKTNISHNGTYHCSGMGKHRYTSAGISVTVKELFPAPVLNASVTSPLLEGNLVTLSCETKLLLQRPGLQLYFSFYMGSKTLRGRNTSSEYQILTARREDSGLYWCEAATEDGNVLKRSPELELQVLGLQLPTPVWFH
Binder,Ia/IIb He_1a/2b [1],He/Con_1a [2],He/Con_2b [3],He_2aR/2b (IIaR/IIb) [4],He/Con_2aR [5],He/Con_2b [6]
"GpH7-A5/GpH7-B3 variant S239_12R/GpL16-k0 (antibody, human IgG1, kappa, Heterodimerized anti-glypican-3 IgG1; substitution in only one H chain; also called S239R; He Ab) heavy 1: not shown heavy 2: not shown light: DIVMTQSPLSLPVTPGEPASISCQASESLVHSNRNTYLHWYLQKPGQSPQLLIYKVSNRFSGVPDRFSGSGSGTDFTLKISRVEAEDVGVYYCSQNTHVPPTFGQGTKVEIERTVAAPSVFIFPPSDEQLKSGTASVVCLLNNFYPREAKVQWKVDNALQSGNSQESVTEQDSKDSTYSLSSTLTLSKADYEKHKVYACEVTHQGLSSPVTKSFNRGEC",2.21,86.5 % of control (GpH7-A5/GpH7-B3/GpL16-k0 = 100),39.1 % of control (GpH7-A5/GpH7-B3/GpL16-k0 = 100),,,
"GpH7-A5/GpH7-B3 variant D265_02A/GpL16-k0 (antibody, human IgG1, kappa, Heterodimerized anti-glypican-3 IgG1; alteration in only one H chain (GpH7-B3 side); also called He Ab) heavy 1: not shown heavy 2: not shown light: DIVMTQSPLSLPVTPGEPASISCQASESLVHSNRNTYLHWYLQKPGQSPQLLIYKVSNRFSGVPDRFSGSGSGTDFTLKISRVEAEDVGVYYCSQNTHVPPTFGQGTKVEIERTVAAPSVFIFPPSDEQLKSGTASVVCLLNNFYPREAKVQWKVDNALQSGNSQESVTEQDSKDSTYSLSSTLTLSKADYEKHKVYACEVTHQGLSSPVTKSFNRGEC",,,,1.71,33.9 % of control (GpH7-A5/GpH7-B3/GpL16-k0 = 100),19.9 % of control (GpH7-A5/GpH7-B3/GpL16-k0 = 100)
"GpH7-A5/GpH7-B3 variant P238_11K/GpL16-k0 (antibody, human IgG1, kappa, Heterodimerized anti-glypican-3 IgG1; alteration in only one H chain (GpH7-B3 side); also called He Ab) heavy 1: not shown heavy 2: not shown light: DIVMTQSPLSLPVTPGEPASISCQASESLVHSNRNTYLHWYLQKPGQSPQLLIYKVSNRFSGVPDRFSGSGSGTDFTLKISRVEAEDVGVYYCSQNTHVPPTFGQGTKVEIERTVAAPSVFIFPPSDEQLKSGTASVVCLLNNFYPREAKVQWKVDNALQSGNSQESVTEQDSKDSTYSLSSTLTLSKADYEKHKVYACEVTHQGLSSPVTKSFNRGEC",,,,2.03,36.9 % of control (GpH7-A5/GpH7-B3/GpL16-k0 = 100),18.1 % of control (GpH7-A5/GpH7-B3/GpL16-k0 = 100)
"GpH7-A5/GpH7-B3 variant D265_04F/GpL16-k0 (antibody, human IgG1, kappa, Heterodimerized anti-glypican-3 IgG1; alteration in only one H chain (GpH7-B3 side); also called He Ab) heavy 1: not shown heavy 2: not shown light: DIVMTQSPLSLPVTPGEPASISCQASESLVHSNRNTYLHWYLQKPGQSPQLLIYKVSNRFSGVPDRFSGSGSGTDFTLKISRVEAEDVGVYYCSQNTHVPPTFGQGTKVEIERTVAAPSVFIFPPSDEQLKSGTASVVCLLNNFYPREAKVQWKVDNALQSGNSQESVTEQDSKDSTYSLSSTLTLSKADYEKHKVYACEVTHQGLSSPVTKSFNRGEC",,,,1.79,5.6 % of control (GpH7-A5/GpH7-B3/GpL16-k0 = 100),3.2 % of control (GpH7-A5/GpH7-B3/GpL16-k0 = 100)
"GpH7-A5/GpH7-B3 variant P238_12R/GpL16-k0 (antibody, human IgG1, kappa, Heterodimerized anti-glypican-3 IgG1; alteration in only one H chain (GpH7-B3 side); also called He Ab) heavy 1: not shown heavy 2: not shown light: DIVMTQSPLSLPVTPGEPASISCQASESLVHSNRNTYLHWYLQKPGQSPQLLIYKVSNRFSGVPDRFSGSGSGTDFTLKISRVEAEDVGVYYCSQNTHVPPTFGQGTKVEIERTVAAPSVFIFPPSDEQLKSGTASVVCLLNNFYPREAKVQWKVDNALQSGNSQESVTEQDSKDSTYSLSSTLTLSKADYEKHKVYACEVTHQGLSSPVTKSFNRGEC",,,,1.57,80.5 % of control (GpH7-A5/GpH7-B3/GpL16-k0 = 100),51.4 % of control (GpH7-A5/GpH7-B3/GpL16-k0 = 100)
"GpH7-A5/GpH7-B3 variant D265_03V/GpL16-k0 (antibody, human IgG1, kappa, Heterodimerized anti-glypican-3 IgG1; alteration in only one H chain (GpH7-B3 side); also called He Ab) heavy 1: not shown heavy 2: not shown light: DIVMTQSPLSLPVTPGEPASISCQASESLVHSNRNTYLHWYLQKPGQSPQLLIYKVSNRFSGVPDRFSGSGSGTDFTLKISRVEAEDVGVYYCSQNTHVPPTFGQGTKVEIERTVAAPSVFIFPPSDEQLKSGTASVVCLLNNFYPREAKVQWKVDNALQSGNSQESVTEQDSKDSTYSLSSTLTLSKADYEKHKVYACEVTHQGLSSPVTKSFNRGEC",,,,1.8,5.8 % of control (GpH7-A5/GpH7-B3/GpL16-k0 = 100),3.2 % of control (GpH7-A5/GpH7-B3/GpL16-k0 = 100)
"GpH7-A5/GpH7-B3 variant D265_07I/GpL16-k0 (antibody, human IgG1, kappa, Heterodimerized anti-glypican-3 IgG1; alteration in only one H chain (GpH7-B3 side); also called He Ab) heavy 1: not shown heavy 2: not shown light: DIVMTQSPLSLPVTPGEPASISCQASESLVHSNRNTYLHWYLQKPGQSPQLLIYKVSNRFSGVPDRFSGSGSGTDFTLKISRVEAEDVGVYYCSQNTHVPPTFGQGTKVEIERTVAAPSVFIFPPSDEQLKSGTASVVCLLNNFYPREAKVQWKVDNALQSGNSQESVTEQDSKDSTYSLSSTLTLSKADYEKHKVYACEVTHQGLSSPVTKSFNRGEC",,,,2.57,3.4 % of control (GpH7-A5/GpH7-B3/GpL16-k0 = 100),1.3 % of control (GpH7-A5/GpH7-B3/GpL16-k0 = 100)

# Source: patent publication US20180155451A1 (published 2018)
